Experiments:
ALR-1 = ALR-1 (Caenorhabditis elegans, UniProt Q21836 1-362); assay: EMSA; self competes; 50 mM KCl, 20 mM HEPES pH 7.9, 0.2 mM EDTA, 0.5 mM DTT, 3 mM MgCl2, 1 ug poly(dI-dC), 0.5 ug/ul BSA, 0-800 ng protein, 20 ul, 20 min on ice (4 C); conditions: protein: recombinant; tags: N-terminal 6His (pQE-80L); label: 32P; blunt
ZTF-17 [1] = biological target: T1, ZTF-17 (Caenorhabditis elegans, UniProt P45972 1-705); assay: EMSA; 50 mM KCl, 20 mM HEPES pH 7.9, 0.2 mM EDTA, 0.5 mM DTT, 3 mM MgCl2, 1 ug poly(dI-dC), 0.5 ug/ul BSA, 0-800 ng protein, 20 ul, 20 min on ice (4 C); conditions: protein: recombinant; tags: N-terminal 6His (pQE-80L); label: 32P; blunt
T1 sequence: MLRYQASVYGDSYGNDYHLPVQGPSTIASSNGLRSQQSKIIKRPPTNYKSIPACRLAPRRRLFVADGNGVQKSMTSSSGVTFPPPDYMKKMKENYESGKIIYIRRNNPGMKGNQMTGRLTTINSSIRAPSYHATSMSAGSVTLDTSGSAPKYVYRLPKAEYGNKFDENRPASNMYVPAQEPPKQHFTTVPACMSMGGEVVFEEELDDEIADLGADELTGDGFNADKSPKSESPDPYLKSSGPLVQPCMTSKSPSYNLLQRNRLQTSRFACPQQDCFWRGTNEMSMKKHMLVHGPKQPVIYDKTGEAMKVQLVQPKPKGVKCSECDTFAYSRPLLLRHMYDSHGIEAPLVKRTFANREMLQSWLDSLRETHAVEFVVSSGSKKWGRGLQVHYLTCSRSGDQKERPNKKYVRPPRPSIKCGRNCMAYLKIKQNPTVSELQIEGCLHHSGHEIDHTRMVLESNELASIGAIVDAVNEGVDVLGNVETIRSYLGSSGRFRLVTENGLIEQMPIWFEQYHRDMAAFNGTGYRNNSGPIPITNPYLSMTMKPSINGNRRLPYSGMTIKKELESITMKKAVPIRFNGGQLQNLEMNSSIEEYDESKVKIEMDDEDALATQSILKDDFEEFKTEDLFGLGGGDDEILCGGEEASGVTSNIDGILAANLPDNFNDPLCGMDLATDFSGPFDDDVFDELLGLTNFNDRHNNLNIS

ZTF-17 [2] = biological target: T1, ZTF-17; assay: EMSA; also competes vs YF4-2; 50 mM KCl, 20 mM HEPES pH 7.9, 0.2 mM EDTA, 0.5 mM DTT, 3 mM MgCl2, 1 ug poly(dI-dC), 0.5 ug/ul BSA, 0-800 ng protein, 20 ul, 20 min on ice (4 C); conditions: protein: recombinant; tags: N-terminal 6His (pQE-80L); label: 32P (probe); blunt
ZTF-17 [3] = biological target: T1, ZTF-17; assay: competition; cold competitor vs YF4-2; 50 mM KCl, 20 mM HEPES pH 7.9, 0.2 mM EDTA, 0.5 mM DTT, 3 mM MgCl2, 1 ug poly(dI-dC), 0.5 ug/ul BSA, 0-800 ng protein, 20 ul, 20 min on ice (4 C); conditions: protein: recombinant; tags: N-terminal 6His (pQE-80L); blunt

ALR-1, sequence (Q21836 whole entry): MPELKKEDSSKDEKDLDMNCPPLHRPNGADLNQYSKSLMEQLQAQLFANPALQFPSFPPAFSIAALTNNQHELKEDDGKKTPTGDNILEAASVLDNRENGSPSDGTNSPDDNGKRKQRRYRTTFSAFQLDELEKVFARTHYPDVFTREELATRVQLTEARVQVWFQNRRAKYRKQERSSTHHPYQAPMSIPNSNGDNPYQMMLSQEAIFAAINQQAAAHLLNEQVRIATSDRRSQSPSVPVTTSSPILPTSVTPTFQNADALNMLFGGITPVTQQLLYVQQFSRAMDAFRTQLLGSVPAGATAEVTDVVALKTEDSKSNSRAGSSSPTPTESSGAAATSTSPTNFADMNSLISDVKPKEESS

B1: ECR2 (dsDNA)
DNA 1: CCCATATGCTTCCTGCTGTGTGTGGCACGAGCGCCAATAA
DNA 2: TTATTGGCGCTCGTGCCACACACAGCAGGAAGCATATGGG
- binding result (ALR-1): binds

B2: YF4-2 (dsDNA)
DNA 1: GAGCAAGAGATGTGCTCTCGGCTCCACGAACCTCTTTGATCTATGCCGACAGTGGGGGAGATTGGAGAAGAAGCATGCTCCACCCTTCACGTGTATCAGTACGTCTGCGTCTTCTTGTGCGTGCCGCCCGGATTAGAAGACATGAAGTGGGAGGGCGATAGAGGAAATTCCGATGGCAATACCAAC
DNA 2: GTTGGTATTGCCATCGGAATTTCCTCTATCGCCCTCCCACTTCATGTCTTCTAATCCGGGCGGCACGCACAAGAAGACGCAGACGTACTGATACACGTGAAGGGTGGAGCATGCTTCTTCTCCAATCTCCCCCACTGTCGGCATAGATCAAAGAGGTTCGTGGAGCCGAGAGCACATCTCTTGCTC
- binding result (ZTF-17 [1]): binds

B3: YF4-4 (dsDNA)
DNA 1: GCTCCACCCTTCACGTGTATCAGTACGTCTGCGTCTTCTTGTGCGTGCCGCCCGGATTAGAAGACATGAAGTGGGAGGGCGATAGAGGAAATTCCGATGGCAATACCAAC
DNA 2: GTTGGTATTGCCATCGGAATTTCCTCTATCGCCCTCCCACTTCATGTCTTCTAATCCGGGCGGCACGCACAAGAAGACGCAGACGTACTGATACACGTGAAGGGTGGAGC
- binding result (ZTF-17 [2]): binds

B4: YF4-3 (dsDNA)
DNA 1: GAGCAAGAGATGTGCTCTCGGCTCCACGAACCTCTTTGATCTATGCCGACAGTGGGGGAGATTGGAGAAGAAGCATGCTCCACCCTTCACGTGTATCAGTACG
DNA 2: CGTACTGATACACGTGAAGGGTGGAGCATGCTTCTTCTCCAATCTCCCCCACTGTCGGCATAGATCAAAGAGGTTCGTGGAGCCGAGAGCACATCTCTTGCTC
- binding result (ZTF-17 [3]): no binding

Reference: paper PMC4051164, “Multiple transcription factors directly regulate Hox gene lin-39 expression in ventral hypodermal cells of the C. elegans embryo and larva, including the hypodermal fate regulators LIN-26 and ELT-6”
